Data from article PMC5464773.

Molecular target: Myc-tagged Bfl-1 (human) (UniProt Q16548)
Test: fluorescence polarisation; competition: 0–10 μM unlabeled peptide titrated into 50 nM c-myc-tagged receptor plus 25 nM fluoresceinated BIM; 25 mM Tris pH 7.8, 50 mM NaCl, 1 mM EDTA, 5% DMSO, 0.001% v/v Triton-X; 23°C, 3 hr; fit to a complete competitive binding model

Chain of Myc-tagged Bfl-1 (human) (Q16548 whole entry): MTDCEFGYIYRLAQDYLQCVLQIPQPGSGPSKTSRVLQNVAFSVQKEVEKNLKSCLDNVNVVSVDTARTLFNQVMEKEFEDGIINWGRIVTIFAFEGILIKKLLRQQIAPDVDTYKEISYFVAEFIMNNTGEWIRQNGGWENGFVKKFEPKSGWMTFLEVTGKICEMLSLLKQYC

- Ki: < 0.1 nM
Substance: BIM BH3 peptide (unlabeled) (peptide; other documents disagree on this pair)
